This note sets out measurements from patent publication US20230391845A1, “GLP-1, GIP AND GLUCAGON RECEPTOR TRIPLE AGONISTS” (priority 2020, published 2023).

*1 amine or outer side, *2 acyl side, *3 side chain or, on linkers, in order; H or OH if unused. Where a SMILES comes first, the peptide text is derived from it. Where no end group is shown, it is not given here. Side-chain parts run from the residue outwards. [ ]: non-standard residue; d: D form. The star is where a group is joined. X1 = O=C(O)CCCCCCCCCCCCCCCCCCC(=O)NCC1CCC(C(=O)*)CC1; C20 diacid = O=C(O)CCCCCCCCCCCCCCCCCCC(=O)*; γGlu = O=C(O)[C@H](CCC(=O)[*:2])N[*:1]; εLys = N[C@@H](CCCCN[*:1])C(=O)[*:2]; AEEA = NCCOCCOCC(=O)O; Aib = CC(C)(N)C(=O)O

First the molecules themselves.
T1: human glucose-dependent insulinotropic polypeptide receptor (human, UniProt P48546 22-466)
T1 sequence (looked up): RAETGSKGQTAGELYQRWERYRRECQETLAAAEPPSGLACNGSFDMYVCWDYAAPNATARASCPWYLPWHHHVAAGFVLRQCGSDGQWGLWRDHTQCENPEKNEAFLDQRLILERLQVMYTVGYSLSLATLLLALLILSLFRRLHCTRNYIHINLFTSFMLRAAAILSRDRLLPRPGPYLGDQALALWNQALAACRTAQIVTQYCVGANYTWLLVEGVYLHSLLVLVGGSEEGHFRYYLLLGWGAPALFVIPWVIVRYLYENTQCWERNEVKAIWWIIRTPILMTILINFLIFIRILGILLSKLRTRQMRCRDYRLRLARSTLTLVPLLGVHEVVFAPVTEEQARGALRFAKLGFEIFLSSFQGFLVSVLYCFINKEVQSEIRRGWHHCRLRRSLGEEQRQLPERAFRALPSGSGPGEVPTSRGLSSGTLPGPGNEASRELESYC

B1: Compound No. 16 (peptide)
peptide: Y[Aib]QGTFTSDYSIYLEKQAA[Aib]EFVQWLLEGGPSSGAPPPS-NH2
modifications: not fully specified (residue 16); printed as Y-Aib-QGTFTSDYSIYLE-K[2-[2-[2-[[2-[2-[2-[[(4S)-4-carboxy-4-(19-carboxynonadecanoylamino)butanoyl]amino]ethoxy]ethoxy]acetyl]amino]ethoxy]ethoxy]acetyl]-QAA-Aib-EFVQWLLEGGPSSGAPPPS-NH2
B2: Compound No. 14 (peptide)
peptide: Y[Aib]QGTFTSDYSIYLEKQAA[Aib]EFVQWLLEGGPSSGAPPPS-NH2
modifications: not fully specified (residue 16); printed as Y-Aib-QGTFTSDYSIYLE-K[2-[2-[2-[[2-[2-[2-[[(4S)-4-carboxy-4-[[4-[(19-carboxynonadecanoylamino)methyl]cyclohexanecarbonyl]amino]butanoyl]amino]ethoxy]ethoxy]acetyl]amino]ethoxy]ethoxy]acetyl]-QAA-Aib-EFVQWLLEGGPSSGAPPPS-NH2
B3: Compound No. 18 (peptide)
peptide: Y[Aib]HGTFTSDYSIYLEKQAA[Aib]EFVQWLLEGGPSSGAPPPS-NH2
modifications: not fully specified (residue 16); printed as Y-Aib-HGTFTSDYSIYLE-K[(2S)-2-amino-6-[[(2S)-2-amino-6-[[(4S)-4-carboxy-4-(19-carboxynonadecanoylamino)butanoyl]amino]hexanoyl]amino]hexanoyl]-QAA-Aib-EFVQWLLEGGPSSGAPPPS-NH2
B4: Compound No. 13 (peptide)
peptide: Y[Aib]QGTFTSDYSIYLEKQAA[Aib]EFVNWLLAGGPSSGAPPPS-NH2
modifications: not fully specified (residue 16); printed as Y-Aib-QGTFTSDYSIYLE-K[(2S)-2-amino-6-[[(2S)-2-amino-6-[[(4S)-4-carboxy-4-[[4-[(19-carboxynonadecanoylamino)methyl]cyclohexanecarbonyl]amino]butanoyl]amino]hexanoyl]amino]hexanoyl]-QAA-Aib-EFVNWLLAGGPSSGAPPPS-NH2
B5: Compound No. 15 (peptide)
peptide: Y[Aib]QGTFTSDYSIYLEKQAA[Aib]EFVNWLLAGGPSSGAPPPS-NH2
modifications: not fully specified (residue 16); printed as Y-Aib-QGTFTSDYSIYLE-K[2-[2-[2-[[2-[2-[2-[[(4S)-4-carboxy-4-(19-carboxynonadecanoylamino)butanoyl]amino]ethoxy]ethoxy]acetyl]amino]ethoxy]ethoxy]acetyl]-QAA-Aib-EFVNWLLAGGPSSGAPPPS-NH2
B6: Compound No. 12 (peptide)
peptide: Y[Aib]QGTFTSDYSIYLEKQAA[Aib]EFVNWLLAGGPSSGAPPPS-NH2
modifications: not fully specified (residue 16); printed as Y-Aib-QGTFTSDYSIYLE-K[2-[2-[2-[[2-[2-[2-[[(4S)-4-carboxy-4-[[4-[(19-carboxynonadecanoylamino)methyl]cyclohexanecarbonyl]amino]butanoyl]amino]ethoxy]ethoxy]acetyl]amino]ethoxy]ethoxy]acetyl]-QAA-Aib-EFVNWLLAGGPSSGAPPPS-NH2

The target of the first assay is human glucagon-like peptide 1 receptor (human, UniProt P43220 24-463). Put plainly: cell-based or functional assay.
Conditions: not given
As to B1, the “hGLP-1R CRE Luc EC50 (pM)” value turned out to be 3.1 pM.

Regarding B2, the “hGLP-1R CRE Luc EC50 (pM)” value worked out at 4.3 pM.

Take B3: the “hGLP-1R CRE Luc EC50 (pM)” value is 106 pM.

As to Y[Aib]QGTFTSDYSIYLEKQAA[Aib]EFVQWLLEGGPSSGAPPPS-NH2 (not fully specified (residue 16)) [Compound No. 17], the “hGLP-1R CRE Luc EC50 (pM)” value was found to be 2.8 pM.

In the case of B4, the “hGLP-1R CRE Luc EC50 (pM)” value turned out to be 2.8 pM.

As to B5, the “hGLP-1R CRE Luc EC50 (pM)” value amounted to 1.4 pM.

With B6, the “hGLP-1R CRE Luc EC50 (pM)” value stood at 2.4 pM.

The target of a further assay is T1, human glucose-dependent insulinotropic …. Briefly: cell-based or functional assay.
Conditions: not given
In the case of B1, the “hGIPR CRE Luc EC50 (pM)” value is 11.4 pM.

Turning to B2, the “hGIPR CRE Luc EC50 (pM)” value turned out to be 4.2 pM.

As for B3, the “hGIPR CRE Luc EC50 (pM)” value was 7.1 pM.

As to Y[Aib]QGTFTSDYSIYLEKQAA[Aib]EFVQWLLEGGPSSGAPPPS-NH2 (not fully specified (residue 16)) [Compound No. 17], the “hGIPR CRE Luc EC50 (pM)” value turned out to be 7 pM.

In the case of B4, the “hGIPR CRE Luc EC50 (pM)” value came out at 2.1 pM.

B5: the “hGIPR CRE Luc EC50 (pM)” value worked out at 4.8 pM.

Take B6: the “hGIPR CRE Luc EC50 (pM)” value was found to be 1.8 pM.

In the next assay the target is human glucagon receptor (human, UniProt P47871 26-477). Put plainly: cell-based or functional assay.
human glucagon receptor, sequence (P47871 26-477): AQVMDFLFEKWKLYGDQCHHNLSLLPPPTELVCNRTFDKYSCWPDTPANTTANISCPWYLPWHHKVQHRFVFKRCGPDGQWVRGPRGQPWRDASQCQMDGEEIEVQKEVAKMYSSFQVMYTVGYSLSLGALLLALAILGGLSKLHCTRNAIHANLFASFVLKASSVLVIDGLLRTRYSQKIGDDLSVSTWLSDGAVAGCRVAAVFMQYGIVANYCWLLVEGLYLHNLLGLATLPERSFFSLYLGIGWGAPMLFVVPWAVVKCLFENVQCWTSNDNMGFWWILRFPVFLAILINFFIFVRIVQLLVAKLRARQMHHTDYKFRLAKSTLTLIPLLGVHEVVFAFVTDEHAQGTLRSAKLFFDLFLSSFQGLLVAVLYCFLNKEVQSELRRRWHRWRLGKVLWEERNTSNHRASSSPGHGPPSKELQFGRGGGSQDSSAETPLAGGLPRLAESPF
Conditions: not given
As for B1, the “hGcgR CRE Luc EC50 (pM)” value is 185 pM.

Consider B2, for which the “hGcgR CRE Luc EC50 (pM)” value was found to be 287 pM.

In the case of B3, the “hGcgR CRE Luc EC50 (pM)” value was 72.1 pM.

Take Y[Aib]QGTFTSDYSIYLEKQAA[Aib]EFVQWLLEGGPSSGAPPPS-NH2 (not fully specified (residue 16)) [Compound No. 17]: the “hGcgR CRE Luc EC50 (pM)” value turned out to be 86.6 pM.

For the molecule B4, the “hGcgR CRE Luc EC50 (pM)” value stood at 157 pM.

Regarding B5, the “hGcgR CRE Luc EC50 (pM)” value was found to be 267 pM.

For B6, the “hGcgR CRE Luc EC50 (pM)” value is 239 pM.

For the next assay, the target named is T2, human GLP-1 receptor (Homo sapiens, UniProt P43220).
T2 construct: expressed in transfected cells; host or cells: BHK cells (parent line BHKTS13) containing CRE luciferase
T2 sequence (P43220 24-463): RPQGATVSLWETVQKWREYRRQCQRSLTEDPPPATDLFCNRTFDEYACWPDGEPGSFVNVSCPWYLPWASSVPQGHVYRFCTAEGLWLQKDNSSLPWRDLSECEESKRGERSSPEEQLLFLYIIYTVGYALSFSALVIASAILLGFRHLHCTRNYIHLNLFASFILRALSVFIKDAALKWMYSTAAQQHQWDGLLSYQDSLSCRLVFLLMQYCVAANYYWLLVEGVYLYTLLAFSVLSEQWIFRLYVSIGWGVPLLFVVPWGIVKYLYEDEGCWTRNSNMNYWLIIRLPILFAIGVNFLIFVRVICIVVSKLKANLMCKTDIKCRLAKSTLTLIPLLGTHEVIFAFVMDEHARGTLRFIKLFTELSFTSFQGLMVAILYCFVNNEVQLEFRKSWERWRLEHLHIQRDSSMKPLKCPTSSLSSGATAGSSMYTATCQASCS
Put plainly: In vitro functional potency (CRE luciferase; whole cells), human GLP-1R. It is filed as cell-based. The following applies: BHK CRE luc2P hGLP-1R whole cells; Table 2; read-out: hGLP-1R CRE Luc EC50.
Regarding `CC[C@H](C)[C@H](NC(=O)[C@H](CO)NC(=O)[C@H](Cc1ccc(O)cc1)NC(=O)[C@H](CC(=O)O)NC(=O)[C@H](CO)NC(=O)[C@@H](NC(=O)[C@H](Cc1ccccc1)NC(=O)[C@@H](NC(=O)CNC(=O)[C@H](Cc1c[nH]cn1)NC(=O)C(C)(C)NC(=O)[C@@H](N)Cc1c[nH]cn1)[C@@H](C)O)[C@@H](C)O)C(=O)N[C@@H](CC(C)C)C(=O)N[C@@H](CC(C)C)C(=O)N[C@@H](CCC(=O)O)C(=O)N[C@@H](CCCCNC(=O)[C@@H](N)CCCCNC(=O)[C@@H](N)CCCCNC(=O)CC[C@H](NC(=O)CCCCCCCCCCCCCCCCCCC(=O)O)C(=O)O)C(=O)N[C@@H](CCC(N)=O)C(=O)N[C@@H](C)C(=O)N[C@@H](C)C(=O)N[C@@H](CCCNC(=N)N)C(=O)N[C@@H](CCC(=O)O)C(=O)N[C@@H](Cc1ccccc1)C(=O)N[C@H](C(=O)N[C@@H](CCC(N)=O)C(=O)N[C@@H](Cc1c[nH]c2ccccc12)C(=O)N[C@@H](CC(C)C)C(=O)N[C@@H](CC(C)C)C(=O)N[C@@H](CCC(=O)O)C(=O)NCC(=O)NCC(=O)N1CCC[C@H]1C(=O)N[C@@H](CO)C(=O)N[C@@H](CO)C(=O)NCC(=O)N[C@@H](C)C(=O)N1CCC[C@H]1C(=O)N1CCC[C@H]1C(=O)N1CCC[C@H]1C(=O)N[C@@H](CO)C(=O)O)C(C)C` [Compound No. 55] (H-H[Aib]HGTFTSDYSILLEK([εLys-εLys-γGlu-C20 diacid])QAAREFVQWLLEGGPSSGAPPPS-OH; N-terminus assumed), the EC50 worked out at 2 pM.

In the case of `CC[C@H](C)[C@H](NC(=O)[C@H](CO)NC(=O)[C@H](Cc1ccc(O)cc1)NC(=O)[C@H](CC(=O)O)NC(=O)[C@H](CO)NC(=O)[C@@H](NC(=O)[C@H](Cc1ccccc1)NC(=O)[C@@H](NC(=O)CNC(=O)[C@H](CCC(N)=O)NC(=O)C(C)(C)NC(=O)[C@@H](N)Cc1ccc(O)cc1)[C@@H](C)O)[C@@H](C)O)C(=O)N[C@@H](Cc1ccc(O)cc1)C(=O)N[C@@H](CC(C)C)C(=O)N[C@@H](CCC(=O)O)C(=O)N[C@@H](CCCCN)C(=O)N[C@@H](CCC(N)=O)C(=O)N[C@@H](C)C(=O)N[C@@H](C)C(=O)NC(C)(C)C(=O)N[C@@H](CCCCNC(=O)COCCOCCNC(=O)COCCOCCNC(=O)CC[C@H](NC(=O)C1CCC(CNC(=O)CCCCCCCCCCCCCCCCCCC(=O)O)CC1)C(=O)O)C(=O)N[C@@H](Cc1ccccc1)C(=O)N[C@H](C(=O)N[C@@H](CCC(N)=O)C(=O)N[C@@H](Cc1c[nH]c2ccccc12)C(=O)N[C@@H](CC(C)C)C(=O)N[C@@H](CC(C)C)C(=O)N[C@@H](CCC(=O)O)C(=O)NCC(=O)NCC(=O)N1CCC[C@H]1C(=O)N[C@@H](CO)C(=O)N[C@@H](CO)C(=O)NCC(=O)N[C@@H](C)C(=O)N1CCC[C@H]1C(=O)N1CCC[C@H]1C(=O)N1CCC[C@H]1C(=O)N[C@@H](CO)C(N)=O)C(C)C` (stereo partly drawn) [Compound No. 11] (H-Y[Aib]QGTFTSDYSIYLEKQAA[Aib]K([AEEA-AEEA-γGlu-X1])FVQWLLEGGPSSGAPPPS-NH2; N-terminus assumed), the half-maximal effective concentration (EC50) is 4.3 pM.

For the molecule `CC[C@H](C)[C@H](NC(=O)[C@H](CO)NC(=O)[C@H](Cc1ccc(O)cc1)NC(=O)[C@H](CC(=O)O)NC(=O)[C@H](CO)NC(=O)[C@@H](NC(=O)[C@H](Cc1ccccc1)NC(=O)[C@@H](NC(=O)CNC(=O)[C@H](Cc1c[nH]cn1)NC(=O)C(C)(C)NC(=O)[C@@H](N)Cc1c[nH]cn1)[C@@H](C)O)[C@@H](C)O)C(=O)N[C@@H](Cc1ccc(O)cc1)C(=O)N[C@@H](CC(C)C)C(=O)N[C@@H](CCC(=O)O)C(=O)N[C@@H](CCCCNC(=O)[C@@H](N)CCCCNC(=O)[C@@H](N)CCCCNC(=O)CC[C@H](NC(=O)CCCCCCCCCCCCCCCCCCC(=O)O)C(=O)O)C(=O)N[C@@H](CCCNC(=N)N)C(=O)N[C@@H](C)C(=O)N[C@@H](C)C(=O)NC(C)(C)C(=O)N[C@@H](CCC(=O)O)C(=O)N[C@@H](Cc1ccccc1)C(=O)N[C@H](C(=O)N[C@@H](CCC(N)=O)C(=O)N[C@@H](Cc1c[nH]c2ccccc12)C(=O)N[C@@H](CC(C)C)C(=O)N[C@@H](CC(C)C)C(=O)N[C@@H](CCC(=O)O)C(=O)NCC(=O)NCC(=O)N1CCC[C@H]1C(=O)N[C@@H](CO)C(=O)N[C@@H](CO)C(=O)NCC(=O)N[C@@H](C)C(=O)N1CCC[C@H]1C(=O)N1CCC[C@H]1C(=O)N1CCC[C@H]1C(=O)N[C@@H](CO)C(N)=O)C(C)C` [Compound No. 37] (H-H[Aib]HGTFTSDYSIYLEK([εLys-εLys-γGlu-C20 diacid])RAA[Aib]EFVQWLLEGGPSSGAPPPS-NH2; N-terminus assumed), the EC50 amounted to 1.8 pM.

For orientation: EC50 means the concentration giving half of the maximal effect.
